Source: patent publication US20230303623A1, “PEPTIDES AND METHODS OF USE” (REALTA LIFE SCIENCES, INC., priority 2020, published 2023)
Entries after “also recorded” stand apart in the source; their conditions may differ. Bridges are numbered along the chain shown (N, C = ends). Where no end group is shown, it is not given here. [ ]: non-standard residue; d: D form. S5 = C=CCCC[C@](C)(N)C(=O)O; Sar = CNCC(=O)O

How the values were obtained:
[1] = without PEGylation; as described in U.S. Pat. No. 10,005,818; cited from earlier work
PD-1 binding to PD-L1 = target: T1, PD-1 binding to PD-L1 (Homo sapiens, UniProt Q9NZQ7); assay: PD-1:PD-L1 inhibitor screening ELISA; settings: FIG. 8
T1 construct: purchased
Description: PIC1 peptides were allowed to bind to immobilized PD-L1 on the surface of the plate. Biotinylated PD-1 was then added and bound PD-1 detected by streptavidin-HRP reagent followed by TMB as the substrate for the colorimetric assay.
This inhibitor screening ELISA pair was designed to facilitate the identification and characterization of new PD-1 pathway inhibitors. In this assay, biotinylated human PD-1 was bound to immobilized human PD-L1 and a colorimetric sandwich ELISA platform was used. Plates were coated with human PD-L1 followed by incubation with various PIC1 peptides. Human PD-1-Biotin was then allowed to bind the coated human PD-L1 followed by addition of streptavidin-HRP. TMB was then added as the colorimetric HRP substrate and the wells of the plate analyzed in a plate reader at an absorbance of 450 nm.
The immune checkpoint pathway is an area of significant interest in cancer research. PD-1 is one of the best characterized checkpoint proteins. The binding between PD-1 and its ligand PD-L1 suppresses T-cell activation and allows cancer cells to escape from body's immune surveillance. Therefore, the pharmaceutical inhibition of PD-1 or its ligand has been considered a promising strategy by many cancer researchers. To ascertain if these PIC1 derivatives could inhibit PD-1 interaction with PD-L1, a commercial ELISA kit was utilized. […]

[2] = tested on: purified human Pan T-cells; assay: T-cell exhaustion protocol (repeated CD3/CD28 Dynabead stimulation); type: cell-based; settings: ELISA, listed as RLS-0154
Description: Purified human pan-T-cells were subject to stimulation with Dynabeads every 48 hours over the period of 8 days with cells also receiving PIC1 peptides (2 mg/ml) at each stimulation. Cells not receiving Dynabeads were run in parallel to assess background levels of Caspase 3/7 signal. At the eighth day, cells were harvested, and the levels of Caspase 3/7 determined by ELISA.
Purified human pan-T-cells were subject to stimulation with Dynabeads every 48 hours over the period of 8 days with cells also receiving PIC1 peptides (2 mg/ml) at each stimulation. Cell supernatants were collected at each stimulation and levels of IL-2 and IFN-gamma assayed by ELISA.
T-cell exhaustion is a form of T-cell dysfunction that occurs in cancer. It is generally defined by poor effector function, reduction in cytokine release (e.g., IL-2, TNF-alpha, IFN-gamma), sustained expression of inhibitory receptors (e.g., PD-1, LAG-3, CD244, CD160) with the progressive loss of effector function due to overstimulation. Exhaustion can prevent optimal control of tumor growth. Exhausted T cells are prevalent in the tumor microenvironment (TME) and can lead to T-cell apoptosis. T-cell exhaustion is reversible and pharmaceutical inhibition of T-cell exhaustion has been considered a promising strategy by many cancer researchers. To ascertain if PIC1 peptides could reverse T-cell exhaustion and increase T cell viability and effector function, a T-cell exhaustion protocol was developed. To induce T-cell exhaustion, purified human Pan T-cells were stimulated with T-Activator CD3/CD28 Dynabeads and cells were washed and re-stimulated every 48 hours. PIC1 peptides were added to the cells after each stimulation with Dynabeads. After three to four stimulations, cells were harvested for readouts which consisted of assessing T-cell apoptosis by measuring Caspase 3/7 levels and production of cytokines IL-2 and IFN-gamma, which are indicative of T-cell functionality. […] To further evaluate if PIC1 peptides could restore T-cell functionality in cells that have undergone the exhaustion protocol, the inventors next assessed production of cytokines IL-2 and IFN-gamma. Supernatants from the cells after each stimulation was collected and the cytokines measured by ELISA. […] The lower level of IFN-gamma signal was consistently seen in this assay.

MPO = target: T2, MPO (Homo sapiens, UniProt P05164); assay: MPO activity assay; type: biochemical; settings: compared to parent peptide
T2 construct: purchased Lee BioSolutions (Maryland Heights, MO)
Description: The MPO activity assay was performed as previously described. Briefly, peptides were diluted to 12 mg/ml and serially titrated in a 96 well plate at a volume of 0.02 ml. MPO was diluted to 20 μg/ml and 0.02 ml was added to the titrated peptides. TMB (3,30,5,50-tetramethylbenzidine) (0.1 ml) was added to each well for 2 minutes, followed by 0.1 ml of 2.5 N H2SO4 for another 2 minutes, and then read on a 96 well plate reader (BioTek) at 450 nm.
To ascertain the inhibition of MPO activity by the various peptides, a range of concentrations of the stapled peptides and D-amino acid variants were tested (FIG. 3A-3B) and half-maximal activity levels were calculated from the dose-response curves (FIG. 6A-6C, respectively).

CTLA-4 = target: T3, CTLA-4 (Homo sapiens, UniProt P16410); assay: CTLA-4 Blockade Bioassay (Promega); type: cell-based; design: host or cells: Jurkat T cells (CTLA-4 effector cells) co-cultured with aAPC/Raji cells; settings: increasing concentrations; listed as RLS-0154
T3 sequence (P16410 36-223): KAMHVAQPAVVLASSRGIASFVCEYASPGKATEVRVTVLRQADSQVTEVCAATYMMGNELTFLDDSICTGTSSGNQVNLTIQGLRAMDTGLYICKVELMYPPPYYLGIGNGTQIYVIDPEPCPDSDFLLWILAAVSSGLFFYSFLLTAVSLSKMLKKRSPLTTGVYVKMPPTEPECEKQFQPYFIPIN
Description: CTLA-4 effector cells were incubated with aAPC/Raji Cells in the absence or presence of increasing concentrations of anti-CTLA-4 antibody (positive control), RLS-0122, RLS-0150, RLS-0154, RLS-0164 and RLS-0168 and RLS-0088 (negative control). Luminescence was detected in luminometer plate reader. The drop-off in signal with the test peptides at high concentrations is due to cell death as a result of peptide buffer effects on the cells.
To assess if PIC1 peptides could block CTLA-4 inhibitory activity in a cell-based assay, select peptides were screened in the CTLA-4 Blockade Bioassay (Promega). This bioluminescent cell-based assay can be used to measure the potency and stability of molecules targeting CTLA-4 and consists of two genetically engineered cell lines: CTLA-4 effector cells: Jurkat T cells expressing human CTLA-4 and a luciferase reporter driven by a native promoter which responds to TCR/CD28 activation and aAPC/Raji Cells: Raji cells expressing an engineered cell surface protein designed to activate cognate TCRs in an antigen-independent manner and endogenously expressing CTLA-4 ligands CD80 and CD86. When the two cell types are co-cultured, CTLA-4 competes with CD28 for their shared ligands, CD80 and CD86 and thus inhibits CD28 pathway activation and promoter-mediated luminescence. Addition of a molecule that blocks the interaction of CTLA-4 with its ligands CD80 and CD86 results in promoter-mediated luminescence.

VEGF = target: T4, VEGF (Homo sapiens, UniProt P15692); assay: VEGF Bioassay (Promega), VEGF signaling via VEGFR-2 (KDR); type: cell-based
T4 construct: Promega (bioassay)
T4 sequence (P15692 27-191 isoform P15692-4): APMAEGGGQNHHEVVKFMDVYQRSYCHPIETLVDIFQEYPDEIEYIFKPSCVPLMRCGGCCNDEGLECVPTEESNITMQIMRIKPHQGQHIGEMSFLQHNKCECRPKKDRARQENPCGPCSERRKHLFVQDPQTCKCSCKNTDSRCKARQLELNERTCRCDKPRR
Excerpt: Luminescence was detected in luminometer plate reader.
Angiogenesis, or the formation of new blood vessels from the established vasculature, is an essential element in tumor growth and metastasis formation. Inhibiting tumor angiogenesis is considered a major therapeutic strategy in oncology. […] The bioluminescent signal is detected in a luminometer.

C1q = target: T5, C1q (Homo sapiens, UniProt P02745+P02746+P02747); assay: C1q binding ELISA-type assay; settings: compared to parent peptide
T5 construct: purchased Complement Technology (Tyler, TX)
Description: The C1q binding assay was performed as previously described. Briefly, an Immunlon-2 HB ELISA plate was coated with 1 μg/ml C1q in bicarbonate buffer overnight at 4° C. The plates were washed with PBS-T (phosphate buffered saline+0.1% Tween) and then blocked with 1% gelatin/PBS for 2 hours at room temperature. After washing, the plates were incubated with the peptides starting at 2.5 mg/ml and then serially diluted in 1% gelatin/PBS for 1 hour at room temperature followed by washing. Plates were then probed with rabbit antibody raised against the lead peptide […] (SEQ ID NO: 2) that lacked PEGylation at 1:1000 in 1% gelatin/PBS for 1 hour at room temperature followed by a goat anti-rabbit HRP (Sigma Aldrich, St Louis, MO) at 1:1,000 in 1% gelatin/PBS for 1 hour at room temperature with a washing step in between. After addition of TMB substrate solution to the wells, the reaction was stopped using 1N H2SO4, and the plate read on a BioTek Synergy HT plate reader at 450 nm.
The astrovirus capsid protein and the PIC1 molecules derived from it inhibit classical complement pathway activation by binding to the pattern recognition molecule C1q. The inventors next tested peptide variant binding to C1q in an ELISA-type assay in which C1q is used as the capture substrate and bound peptide detected with a rabbit polyclonal antibody against the peptide portion of PA-dPEG24 ([…]-d24; SEQ ID NO: 3). Binding curves were derived for the stapled and D-amino acid peptides based on the PA-I8Sar and PA-C9Sar (FIG. 5A-5C) backbone, from which half-maximal binding concentrations were calculated (FIGS. 2A and B, respectively). […] For the peptides based on the PA-C9Sar backbone, C1q was bound to a greater degree than the parent peptide (FIG. 2B).

[3] = Total Antioxidant Capacity (TAC) assay; settings: highest peptide concentration 1.5 mM; compared to parent peptide
Description: As previously reported, the TAC (Total Antioxidant Capacity) Assay (Cell Biolabs, Inc, San Diego, CA) was used to measure the antioxidant capacity of the PIC1 variants based on the reduction of copper (II) to copper (I). The kit protocol was performed per the manufacturer's recommendations.
The antioxidant properties for the PIC1 variants were evaluated in a Total Antioxidant Capacity (TAC) assay, as previously reported. Total antioxidant activity over a range of peptide concentrations were determined for the stapled and the D-amino acid peptides based on the PA-I8Sar and PA-C9Sar backbones (FIG. 4A-4B), with the activity of the highest peptide concentration reported (1.5 mM) (FIG. 5A-5C).

[4] = tested on: antibody-initiated complement activation (lysis of AB human red blood cells by type O serum); assay: ABO incompatibility hemolytic complement assay (CH50-type); type: cell-based; settings: peptides 0.8 mg/ml (~0.5 mM); compared to parent peptide
Description: FIG. 1A-1B show PIC1 peptides' inhibition of complement activation in an ABO incompatibility assay. […] Inhibition of ABO incompatibility hemolysis in a CH50-type assay. Peptides are at a final concentration of 0.5 mM. Values are represented as a percent of the positive control, which consists of human 0 sera and AB red blood cells in GVBS^++ buffer. Data are the means of n=3 independent experiments±SEM.
For hemolytic complement assays, human red blood cells (RBCs) from type AB donors were purified, washed, and standardized to 1.0×10^9 cells/ml, as previously described. Human sera from type 0 donors at a 15% final concentration was combined with 0.5 mM of the peptides and the volume was brought up to 0.2 ml with GVBS^++ and 5.0×10^7 RBCs. The samples were incubated for 1 hour at 37° C. and then spun at 3,000 rpm for 5 minutes and the supernatant was collected and read at 412 nm. Values are represented as a percent of the positive control, which consists of human 0 sera and AB red blood cells in GVBS^++ buffer.
To assess the extent to which the peptide variants inhibit antibody-initiated complement activation, an ABO incompatibility ex vivo assay was utilized in which purified erythrocytes from a ‘type AB+’ donor are incubated with sera from a ‘type 0’ subject containing anti-A and anti-B antibodies. Peptides were tested at a concentration of 0.8 mg/ml (˜0.5 mM).

[5] = peptides 2 mg/ml, stimulation 2

T2 sequence (P05164 279-745 limits assumed): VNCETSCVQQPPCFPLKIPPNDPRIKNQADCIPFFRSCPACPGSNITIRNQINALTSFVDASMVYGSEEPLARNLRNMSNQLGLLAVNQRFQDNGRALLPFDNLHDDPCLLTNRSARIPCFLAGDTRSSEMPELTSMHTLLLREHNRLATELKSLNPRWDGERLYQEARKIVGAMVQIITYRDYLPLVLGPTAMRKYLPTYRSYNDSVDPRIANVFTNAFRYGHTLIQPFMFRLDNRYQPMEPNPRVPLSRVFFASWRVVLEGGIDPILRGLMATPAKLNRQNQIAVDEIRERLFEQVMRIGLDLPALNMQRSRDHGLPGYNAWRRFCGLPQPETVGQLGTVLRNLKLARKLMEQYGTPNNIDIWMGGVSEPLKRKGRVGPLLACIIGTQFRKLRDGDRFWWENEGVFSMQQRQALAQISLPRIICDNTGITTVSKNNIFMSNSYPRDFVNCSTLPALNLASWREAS
T2 sequence (P05164 165-273 limits assumed): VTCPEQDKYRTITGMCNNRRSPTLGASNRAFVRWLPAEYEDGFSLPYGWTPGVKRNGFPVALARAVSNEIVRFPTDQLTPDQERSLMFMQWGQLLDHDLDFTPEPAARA
T5 sequence (P02745 23-245): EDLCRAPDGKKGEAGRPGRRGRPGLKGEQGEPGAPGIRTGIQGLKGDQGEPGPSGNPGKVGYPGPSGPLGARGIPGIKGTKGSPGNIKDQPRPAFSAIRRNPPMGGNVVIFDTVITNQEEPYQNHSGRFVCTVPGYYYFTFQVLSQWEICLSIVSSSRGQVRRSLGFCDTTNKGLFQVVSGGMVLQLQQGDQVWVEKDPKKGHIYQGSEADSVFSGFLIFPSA
T5 sequence (P02746 28-253): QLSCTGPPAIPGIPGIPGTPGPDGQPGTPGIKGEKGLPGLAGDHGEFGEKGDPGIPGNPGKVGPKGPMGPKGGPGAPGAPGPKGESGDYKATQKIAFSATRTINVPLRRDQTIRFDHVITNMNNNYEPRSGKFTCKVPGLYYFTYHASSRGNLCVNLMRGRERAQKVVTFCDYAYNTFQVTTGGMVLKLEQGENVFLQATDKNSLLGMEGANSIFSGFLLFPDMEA
T5 sequence (P02747 29-245): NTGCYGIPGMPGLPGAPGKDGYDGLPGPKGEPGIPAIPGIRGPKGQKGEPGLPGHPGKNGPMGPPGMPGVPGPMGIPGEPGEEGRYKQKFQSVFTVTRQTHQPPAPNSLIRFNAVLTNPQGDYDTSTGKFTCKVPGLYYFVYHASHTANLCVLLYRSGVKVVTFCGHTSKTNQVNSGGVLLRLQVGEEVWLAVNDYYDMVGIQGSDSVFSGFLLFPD
T1 sequence (Q9NZQ7 19-238 limits assumed): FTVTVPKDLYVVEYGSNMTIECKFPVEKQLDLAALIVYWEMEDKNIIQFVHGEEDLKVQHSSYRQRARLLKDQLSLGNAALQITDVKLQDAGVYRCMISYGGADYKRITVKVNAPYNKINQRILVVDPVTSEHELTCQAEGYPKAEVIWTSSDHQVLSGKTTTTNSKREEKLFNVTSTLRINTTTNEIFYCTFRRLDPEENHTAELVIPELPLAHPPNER

IALILEPI(Sar)CQERAA (IALILEPIXCQERAA; sarcosine at position 9; MOD_RES (9)..(9) Sarcosine) [PA-0089, parent peptide, sarcosine at position 9 of PIC1]
solubility in water [1]: water soluble without PEGylation

IALILEPICCQERAA-PEG24 (C-terminal PEG24) [PA-0071, PIC1 peptide with C-terminal monodisperse 24-mer PEGylated moiety]
inhibition of binding of PD-1 to PD-L1, in words (PD-1 binding to PD-L1): did not inhibit

IALILES5I(Sar)CS5ERAA (IALILE[S5]I[Sar]C[S5]ERAA; staple 7-11; not fully specified; printed as IALILES5I(Sar)CS5ERAA) [PA-0154]
Caspase 3/7 levels, in words ([2]; peptides 2 mg/ml at each stimulation, day 8): increase in Caspase 3/7 levels; also recorded: did not display reduction of Caspase levels
IFN-gamma levels in cell supernatants, in words [2, 5]: not and increased levels
IL-2 levels in cell supernatants, in words [2, 5]: detectable IL-2 at stimulation 2; also recorded: increased levels
inhibition of MPO activity (half-maximal values), in words (MPO): decreased MPO inhibition
inhibition of CTLA-4 mediated cell signaling (increase in luminescence), in words (CTLA-4): showed inhibitory activity; also recorded: able to inhibit CTLA-4 mediated cell signaling
inhibition of VEGF signaling via VEGFR-2 (luminescence), in words (VEGF): dose-dependently reduced luminescence

IAdLILEP(Sar)CS5QERS5A (H-IA[dL]ILEP[Sar]C[S5]QER[S5]A-OH; staple 10-14; not fully specified) [PA-0142]
binding to C1q (binding curves, half-maximal binding), in words (C1q): did not bind C1q
total antioxidant capacity, in words [3]: decreased activity compared to the parent peptide
inhibition of ABO incompatible hemolysis (complement inhibition), in words [4]: similar

IS5LILS5PI(Sar)CQERAA (I[S5]LIL[S5]PI[Sar]CQERAA; staple 2-6; not fully specified; printed as IS5LILS5PI(Sar)CQERAA) [PA-0152]
binding to C1q (binding curves, half-maximal binding), in words (C1q): did not titrate
inhibition of MPO activity (half-maximal values), in words (MPO): decreased MPO inhibition
